In the supplement of paper PMC7877785:
± gives the uncertainty stated by the source.

Assay: self-splicing fitness, log relative to wild type (ln ratio); higher = more splicing; Tetrahymena group I intron in knt gene, E. coli kanamycin selection, DiMSum; sequences stand for … in CUCUCU…GGAGGGAAAAGUUAUCAGGCAUGCACCUGGUAGCUAGUCUUUAAACCAAUAGAUUGCAUCGGUUUAAAAGGCAAGACCGUCAAAUUGCGGGAAAGGGGUCAACAGCCGUUCAGUACCAAGUCUCAGGGGAAACUUUGAGAUGGCCUUGCAAAGGGUAUGGUAAUAAGCUGACGGACAUGGUCCUAACCACGCAGCCAAGUCCUAAGUCAACAGAUCUUCUGUUGAUAUGGAUGCAGUUCACAGACUAAAUGUCGGUCGGGGAAGAUGUAUUCUUCUCAUAAGAUAUAGUCGGACCUCUCCUUAAUGGGAGCUAGCGGAUGAAGUGAUGCAACACUGGAGCCGCUGGGAACUAAUUUGUAUGCGAAAGUAUAUUGAUUAGUUUUGGAGUACUCGUGGUCG
Outline: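 Fitness was computed with DiMSum as the error-weighted combination of replicate fold changes, kanamycin versus none, each normalised to wild type. The library randomised all eight intron nucleotides of the P1ex region, with the intron placed in the knt kanamycin-resistance gene on pET-22b(+) in E. coli BL21(DE3). Six replicate transformations were grown overnight at 37°C or 30°C on LB agar with or without 25 μg/mL kanamycin, plus 100 μg/mL carbenicillin, 50 μM IPTG and 0.2% rhamnose. Pooled colonies were amplicon-sequenced on an Illumina HiSeq 2500.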

Sequence	self-splicing fitness (ln) (30 °C)	self-splicing fitness (ln) (37 °C)
CGACAGCAAUAUUACGUGCA	-1.57 ± 0.057	-0.14 ± 0.07
CGACAGCAAUAUUACGUUAU	-3.7 ± 0.13	-2.23 ± 0.12
CGAGAGCAAUAUUACGACAG	-2.82 ± 0.37	-1.15 ± 0.32
CGAGAGCAAUAUUACGAUGU	-3.97 ± 0.25	-1.83 ± 0.19
CGAGAGCAAUAUUACGAUUG	–	-2.09 ± 0.34
CGAGAGCAAUAUUACGCAUU	-2.84 ± 0.24	-2.33 ± 0.21
CGAGAGCAAUAUUACGCUGU	–	-3.26 ± 0.38
CGAGAGCAAUAUUACGGACA	-1.85 ± 0.28	-3.4 ± 0.39
CGAGAGCAAUAUUACGGAUG	-3.42 ± 0.33	-1.83 ± 0.28
CGAGAGCAAUAUUACGGCAG	-2 ± 0.18	-1.33 ± 0.22
CGAGAGCAAUAUUACGGGUU	–	-2.27 ± 0.5
CGAGAGCAAUAUUACGGUCC	-2.23 ± 0.23	–
CGAGAGCAAUAUUACGGUCG	-1.42 ± 0.34	-2.28 ± 0.24
CGAGAGCAAUAUUACGUACA	-1.64 ± 0.27	-1.71 ± 0.42
CGAGAGCAAUAUUACGUCAC	-4.62 ± 0.39	-2.45 ± 0.3
CGAGAGCAAUAUUACGUCAG	-2.31 ± 0.17	-2.54 ± 0.21
CGAGAGCAAUAUUACGUGAA	-3.24 ± 0.2	-2.44 ± 0.29
CGAGAGCAAUAUUACGUGCA	-3.22 ± 0.23	-3.2 ± 0.43
CGAGAGCAAUAUUACGUUCU	-3.16 ± 0.13	-2.83 ± 0.17
CGAGAGCAAUAUUACGUUGA	-2.79 ± 0.38	–
CGAUAGCAAUAUUACGAAAA	-3.85 ± 0.48	-2.7 ± 0.3
CGAUAGCAAUAUUACGAUAG	-0.572 ± 0.089	-0.275 ± 0.1
CGAUAGCAAUAUUACGAUGG	-0.196 ± 0.12	-0.185 ± 0.2
CGAUAGCAAUAUUACGAUUA	-1.59 ± 0.13	-0.77 ± 0.15
CGAUAGCAAUAUUACGCCUG	-0.681 ± 0.15	0.308 ± 0.11
CGAUAGCAAUAUUACGCGAC	-2.59 ± 0.32	-1.35 ± 0.28

Sequence	self-splicing fitness (ln) (30 °C)	self-splicing fitness (ln) (37 °C)
CGAUAGCAAUAUUACGCGGG	-4.21 ± 0.31	-2.42 ± 0.24
CGAUAGCAAUAUUACGCGGU	-3.13 ± 0.27	-1.94 ± 0.19
CGAUAGCAAUAUUACGCUAU	-2.82 ± 0.19	–
CGAUAGCAAUAUUACGCUUU	-3.56 ± 0.35	-3.14 ± 0.34
CGAUAGCAAUAUUACGGACC	-1.78 ± 0.36	-1.7 ± 0.29
CGAUAGCAAUAUUACGGCAC	-2.47 ± 0.33	-1.49 ± 0.31
CGAUAGCAAUAUUACGGCCA	-1.22 ± 0.12	-0.957 ± 0.15
CGAUAGCAAUAUUACGGGAG	-2.86 ± 0.24	-2.39 ± 0.24
CGAUAGCAAUAUUACGGGCG	-1.67 ± 0.12	-0.602 ± 0.11
CGAUAGCAAUAUUACGGGGA	–	-2.27 ± 0.28
CGAUAGCAAUAUUACGGUAA	-3.58 ± 0.31	-1.8 ± 0.27
CGAUAGCAAUAUUACGGUAC	-3.93 ± 0.24	-2.89 ± 0.25
CGAUAGCAAUAUUACGGUGG	-1.03 ± 0.086	-0.748 ± 0.09
CGAUAGCAAUAUUACGUAAA	-2.6 ± 0.32	-0.509 ± 0.26
CGAUAGCAAUAUUACGUAGG	-0.695 ± 0.056	-0.444 ± 0.068
CGAUAGCAAUAUUACGUCUC	-2.61 ± 0.19	-2.55 ± 0.32
CGAUAGCAAUAUUACGUGAC	-2.87 ± 0.18	-2.36 ± 0.23
CGAUAGCAAUAUUACGUGCA	-2.67 ± 0.15	-2.13 ± 0.16
CGAUAGCAAUAUUACGUUAG	-0.734 ± 0.084	-0.52 ± 0.093
CGAUAGCAAUAUUACGUUUA	–	-2.57 ± 0.21
CGCAAGCAAUAUUACGAUCA	-1.58 ± 0.12	0.00155 ± 0.11
CGCAAGCAAUAUUACGAUUA	-2.6 ± 0.17	-1.29 ± 0.15
CGCAAGCAAUAUUACGCAUA	-3.81 ± 0.3	-0.539 ± 0.15
CGCAAGCAAUAUUACGCGAC	-3.77 ± 0.39	-1.68 ± 0.18
CGCAAGCAAUAUUACGCGCC	-3.06 ± 0.21	-1.54 ± 0.17
